{"source": "patent US20260226176A1", "about": "(THERANOVIR, published 2026)", "binders": {"B1": {"name": "variant 4 of a-NRP1_LEP n° 1 (antibody, V domains shown)", "VH": "EVQLVESGGGLVQPGGSLRLSCAASGFTFSSFGMHWVRQAPGKGLEWVAYISSGSSTIHYADSVKGRFTISRDNAKNSLYLQMNSLRAEDTAMYYCARRHYGSSRYWYFDVWGQGTTVTVSS", "VL": "EIVLTQSPATLSLSPGERATLSCRASQSVKSYLAWYQQKPGQAPRLLIYYASSRATGIPARFSGSGSGTDFTLTISSLEPEDFAVYYCQQYSESPYTFGQGTKLEIK", "notes": "humanized variant of 21B10; isotype control hIgG4; also called variant 4 a-NRP1_LEP; variant n°4 a-NRP1_LEP"}}, "key": {"[1]": {"target": "T1, recombinant human NRP-1 (3870-N1-025, Bio-Techne) (human, UniProt O14786 22-856)", "T1 construct": "extracellular domain; bought protein; also called human recombinant NRP-1", "assay": "ELISA, antibody 10 µg/ml, 1 µg immobilised human NRP-1"}, "[2]": {"target": "FACT complex subunit SPT16 (human) (UniProt Q9Y5B9)", "assay": "co-IP from A549 WT lysate, LC-MS/MS, peak area against isotype IP"}, "Histone H2A.Z (human)": {"target": "Histone H2A.Z (human) (UniProt P0C0S5)", "assay": "co-IP from A549 WT lysate, LC-MS/MS, peak area against isotype IP"}, "[3]": {"target": "Sister chromatid cohesion protein PDS5 homolog B (human) (UniProt Q9NTI5)", "assay": "co-IP from A549 WT lysate, LC-MS/MS, peak area against isotype IP"}, "[4]": {"target": "DNA-directed RNA polymerase I subunit RPA1 (human) (UniProt O95602)", "assay": "co-IP from A549 WT lysate, LC-MS/MS, peak area against isotype IP"}, "[5]": {"target": "Replication protein A 70 kDa DNA-binding subunit (human) (UniProt P27694)", "assay": "co-IP from A549 WT lysate, LC-MS/MS, peak area against isotype IP"}, "[6]": {"target": "DNA topoisomerase 2-alpha (human) (UniProt P11388)", "assay": "co-IP from A549 WT lysate, LC-MS/MS, peak area against isotype IP"}, "[7]": {"target": "DNA mismatch repair protein Msh2 (human) (UniProt P43246)", "assay": "co-IP from A549 WT lysate, LC-MS/MS, peak area against isotype IP"}, "[8]": {"target": "T2, native human NRP-1 on the cell surface (human, UniProt O14786 22-923)", "T2 construct": "whole, on cells; endogenous protein; isoform and glycosaminoglycan state on the cells not defined; also called native NRP-1 on MDA-MB-231 cells; native form of NRP-1 protein on the CTCs cell surface", "assay": "flow cytometry, MDA-MB-231 cells, 40 ug/ml, +chondroitinase", "procedure": "(§1) Chondroitinase (C2905, Sigma) was reconstituted in a 0.01% BSA aqueous solution. The MDA-MB-231 cells were treated with chondroitinase (1 U/ml) for 2 hours at 37° C. The cells were detached using cell dissociation solution non-enzymatic (C5914, Sigma). 300,000 cells per condition were washed with 2% FBS in PBS and then incubated with different antibodies of interest or their respective isotype controls at 40 μg/ml for 30 min at 4° C. After wash, an Alexa 488-conjugated anti-human immunoglobulin antibody (20022-1, Biotium) was added at 10 μg/ml for 30 min at 4° C. After a final wash, fluorescence, size and granularity of cells were measured by the LSR Fortessa cytometer (BD Biosciences)."}, "[9]": {"target": "T2, native human NRP-1 on the cell surface", "assay": "flow cytometry, MDA-MB-231 cells, 40 ug/ml, with against without chondroitinase", "procedure": "as §1"}, "[10]": {"target": "T2, native human NRP-1 on the cell surface", "assay": "flow cytometry, MDA-MB-231 cells, 10 ug/ml, with against without heparinase"}, "[11]": {"target": "T2, native human NRP-1 on the cell surface", "assay": "flow cytometry, MDA-MB-231 cells, 40 ug/ml, -chondroitinase", "procedure": "as §1"}, "[12]": {"target": "T2, native human NRP-1 on the cell surface", "assay": "flow cytometry, MDA-MB-231 cells, 10 ug/ml, +heparinase"}, "[13]": {"target": "T3, recombinant murine NRP-1 (5994-N1-050, Bio-Techne) (murine, UniProt P97333 22-856)", "T3 construct": "extracellular domain; bought protein; also called mouse recombinant NRP-1", "assay": "ELISA, antibody 10 µg/ml, 1 µg immobilised murine NRP-1"}}, "data": [{"binder": "B1", "values": [{"measurement": "Absorbance", "setting": "[1]", "result": 0.953}, {"measurement": "Ratio Area V4/IgG4", "setting": "[2]", "result": 6030}, {"measurement": "Ratio Area V4/IgG4", "setting": "Histone H2A.Z (human)", "result": 22}, {"measurement": "Ratio Area V4/IgG4", "setting": "[3]", "result": 358}, {"measurement": "Ratio Area V4/IgG4", "setting": "[4]", "result": 3210}, {"measurement": "Ratio Area V4/IgG4", "setting": "[5]", "result": 2}, {"measurement": "Ratio Area V4/IgG4", "setting": "[6]", "result": 1440}, {"measurement": "Ratio Area V4/IgG4", "setting": "[7]", "result": 1}, {"measurement": "percentage of binding", "setting": "[8]", "result": 86.4, "unit": "%"}, {"measurement": "delta (% of control)", "setting": "[9]", "result": -6.8, "unit": "%"}, {"measurement": "delta (% of control)", "setting": "[10]", "result": -2.3, "unit": "%"}, {"measurement": "percentage of binding", "setting": "[11]", "result": 93.2, "unit": "%"}, {"measurement": "percentage of binding", "setting": "[12]", "result": 10.1, "unit": "%"}, {"measurement": "Absorbance", "setting": "[13]", "result": 0.986}]}]}
